Results from patent publication US20240301038A1 (ATRECA, published 2024).

Target: T1, SARS-CoV-2 native Spike (S) trimer (Acro Biosystems) (SARS-CoV-2, UniProt P0DTC2 16-1213)
T1 construct: also called Spike trimer
Experiment: ELISA on spike trimer

B1: AB-009681 (antibody, V domains shown)
VH: QVQLVQSGAEVKKPGSSVKVSCKASGGTFSSYAISWVRQAPGQGLEWMGGIIPIFGTANYAQKFQGRVTITADESTSTAYMELSSLRSEDTAVYYCASVGGDYDLDYWGQGTLVTVSS
VL: EIVLTQSPATLSLSPGERATLSCRASQSVSSYLAWYQQKPGQAPRLLIYDASNRATGIPARFSGSGSGTDFTLTISSLEPEDFAVYYCQQRSNWPPYTFGQGTKLEIK
B1: no binding.
